Reference: patent US20190112392A1 (Ablynx, published 2019)
Substitutions are numbered along the chain they refer to.

T1: T cell receptor alpha/beta on purified primary human T cells (human, UniProt P01848 1-140; P01850 1-176)
T1 construct: whole, on cells; also called human primary T cells
T1 TCR alpha (looked up): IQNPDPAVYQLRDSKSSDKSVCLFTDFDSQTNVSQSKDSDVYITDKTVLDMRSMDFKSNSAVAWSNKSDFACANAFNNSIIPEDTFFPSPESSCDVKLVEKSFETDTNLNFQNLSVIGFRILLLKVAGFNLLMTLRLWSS
T1 TCR beta (looked up): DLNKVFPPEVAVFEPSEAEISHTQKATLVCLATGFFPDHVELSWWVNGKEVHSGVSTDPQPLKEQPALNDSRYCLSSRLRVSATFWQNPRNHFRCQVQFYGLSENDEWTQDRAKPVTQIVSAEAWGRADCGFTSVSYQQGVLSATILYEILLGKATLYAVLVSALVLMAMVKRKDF

T2: CEACAM5 on cells (UniProt P06731 35-685)
T2 construct: whole, on cells; also called CEACAM5 on LS174T and LoVo cells
T2 sequence (looked up): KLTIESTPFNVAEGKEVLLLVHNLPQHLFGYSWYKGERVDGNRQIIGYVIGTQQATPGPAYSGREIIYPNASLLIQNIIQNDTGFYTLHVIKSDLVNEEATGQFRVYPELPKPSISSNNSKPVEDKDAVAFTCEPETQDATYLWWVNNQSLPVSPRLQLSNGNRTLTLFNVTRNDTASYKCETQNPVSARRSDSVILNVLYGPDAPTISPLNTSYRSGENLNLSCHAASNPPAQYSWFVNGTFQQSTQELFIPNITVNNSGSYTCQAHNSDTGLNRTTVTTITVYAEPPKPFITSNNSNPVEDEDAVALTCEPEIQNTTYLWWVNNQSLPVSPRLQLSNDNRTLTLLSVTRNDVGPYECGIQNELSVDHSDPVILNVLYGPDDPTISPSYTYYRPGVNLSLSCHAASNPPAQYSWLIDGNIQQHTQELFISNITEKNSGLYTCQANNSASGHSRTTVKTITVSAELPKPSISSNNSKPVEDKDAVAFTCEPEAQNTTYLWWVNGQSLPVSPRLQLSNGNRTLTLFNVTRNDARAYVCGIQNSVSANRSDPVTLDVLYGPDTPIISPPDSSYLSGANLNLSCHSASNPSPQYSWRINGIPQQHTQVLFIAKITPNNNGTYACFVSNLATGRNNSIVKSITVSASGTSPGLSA

T3: hCEACAM-5 (R&D Systems, #4128-CM) (human, UniProt P06731 35-685)
T3 construct: Bought protein; also called human CEACAM5 protein
T3 sequence (looked up): T2 sequence (looked up)

T4: soluble recombinant cynomolgus TCR alpha/beta-zipper protein (cynomolgus/rhesus monkey)
T4 construct: Made in house in CHOK1SV cells; extracellular domains fused to a zipper protein; also called cynoTCR-zipper protein; not shown: zipper protein (O'Shea et al. 1993)
T4 V domain 1: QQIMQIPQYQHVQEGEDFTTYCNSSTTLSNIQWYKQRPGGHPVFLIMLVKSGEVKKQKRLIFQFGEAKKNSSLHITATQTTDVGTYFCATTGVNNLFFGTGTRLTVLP
T4 V domain 2: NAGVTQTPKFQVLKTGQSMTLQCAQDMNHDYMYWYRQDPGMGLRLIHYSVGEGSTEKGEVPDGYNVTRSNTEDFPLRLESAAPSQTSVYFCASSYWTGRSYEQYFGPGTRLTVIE

B1: EGFR038G07 (VHH)
VHH: EVQLVESGGGLVQAGGSLRLSCAASGRTFSSYVMGWFRQATGKEREFVATIAWDSGSTYYADSVKGRFTISRDNAKNTVHLQMNSLKPEDTAVYYCAASYNVYYNNYYYPISRDEYDYWGQGTLVTVSS
notes: Monovalent Nanobody; also called monovalent anti-EGFR Nanobody; EGFR monovalent Nanobody
B2: NbCEA5 (VHH)
VHH: EVQLVESGGGSVQAGGSLRLSCAASGDTYGSYWMGWFRQAPGKEREGVAAINRGGGYTVYADSVKGRFTISRDTAKNTVYLQMNSLRPDDTADYYCAASGVLGGLHEDWFNYWGQGTLVTVSS
notes: Monovalent Nanobody; also called CEA#1; monovalent anti-CEA Nanobody
B3: T0170055A02 (VHH)
VHH: EVQLVESGGGLVQPGGSLRLSCAASGDVHKINILGWYRQAPAKEREMVAHITIGDATDYADSAKGRFTISRDEAKNMVYLQMNSLKPEDTAVYFCRAYSRIYPYNYWGQGTLVTVSS
notes: Monovalent anti-TCR Nanobody, cluster A; expressed in E. coli as triple Flag, His6-tagged protein; also called T0170PMP055A02; T01700055A02; not shown: C-terminal triple Flag-His6 tag of the E. coli-made monovalent Nanobody
B4: T0170056G05 (VHH)
VHH: B3 VHH with A23V, I33F, A42G, M47K, T52S, A56Q, A74S, Y98F, N105D
notes: Monovalent anti-TCR Nanobody, cluster A; expressed in E. coli as triple Flag, His6-tagged protein; also called T0170PMP056G05; T01700056G05; not shown: C-terminal triple Flag-His6 tag of the E. coli-made monovalent Nanobody

Key:
[1] = biological target: T5, EGFR on cells (UniProt P00533 25-1210, limits assumed); experiment: flow cytometry, LS174T cells; set-up: Top: unit not given here
T5 construct: whole, on cells; also called HER14 cells (NIH3T3 transfected with EGFR); EGFR on LS174T and LoVo cells

[2] = biological target: T5, EGFR on cells; experiment: flow cytometry, LoVo cells; set-up: Top: unit not given here
[3] = biological target: T6, hEGFR (Sino Biological, #10001-H08H) (human, UniProt P00533 25-645); experiment: SPR (Biacore T100), immobilized hEGFR, 1:1 model
T6 construct: extracellular domain; Bought protein; also called hEGFR ECD; human EGFR protein
Method: (§1) Thereto, hEGFR (Sino Biological, #10001-H08H) was immobilized onto a CM5 chip via amine coupling, using EDC and NHS chemistry. Purified Nanobodies were injected for 2 minutes at different concentrations (between 1.37 and 3000 nM) and allowed to dissociate for 15 min at a flow rate of 45 μl/min. In between sample injections, the surfaces were regenerated with 50 mM NaOH. HBS-EP+(Hepes buffer pH7.4) was used as running buffer.
(§2) The kinetic constants were calculated from the sensorgrams using the BIAEvaluation software (1:1 interaction). The affinity constants (KD) were calculated from resulting association and dissociation rate constants kon and koff, and are shown in Table C-29.

[4] = biological target: T1, T cell receptor alpha/beta on purified …; experiment: flow cytometry on primary human T cells, MeanFI (PE)
[5] = biological target: T5, EGFR on cells; experiment: flow cytometry, HER14 cells
[6] = biological target: T2, CEACAM5 on cells; experiment: flow cytometry, LS174T cells; set-up: Top: unit not given here
[7] = biological target: T2, CEACAM5 on cells; experiment: flow cytometry, LoVo cells; set-up: Top: unit not given here
[8] = biological target: T3, hCEACAM-5 (R&D Systems, #4128-CM); experiment: SPR (Biacore T100), immobilized hCEACAM-5, 1:1 model
Method: as §1, with “hCEACAM-5 (R&D Systems, #4128-CM)” for “hEGFR (Sino Biological, #10001-H08H)”, “0.31” for “1.37”, “2000” for “3000”, “10” for “50”, “Glycine pH 1.5.” for “NaOH.”
as §2

[9] = biological target: T5, EGFR on cells; experiment: flow cytometry on HER14 cells, MeanFI (PE)
[10] = biological target: T7, human CD3 expressed on HEK293H cells (human, UniProt P04234 22-171; P09693 23-182; P07766 23-207; P20963 22-164); experiment: flow cytometry on HEK293H human CD3 cells, MCF
T7 construct: also called HEK293H human CD3; HEK293H CD3
Method: (§3) Binding of purified monovalent anti-TCR Nanobodies to human TCR(2IAN)/CD3 expressed on HEK293H cells was evaluated and compared with the binding to HEK293H cells transfected with human CD3 in flow cytometry, as outlined in Example 5. Dilution series of anti-TCR Nanobodies starting from 1 μM were applied to the cells. The parental HEK293H cell line was included as TCR/CD3 negative cell line.

[11] = biological target: T1, T cell receptor alpha/beta on purified …; experiment: flow cytometry, purified primary human T cells
Method: Periplasmic extracts were screened for cell expressed TCR/CD3 binding using human TCR/CD3 transfected CHO-K1 or HEK293H cells and the respective CHO-K1 or HEK293H reference cell line in a mixed cell line setup. To this end, a large batch of the reference cell lines were labelled with 8 μM PKH26 and frozen. 5×10⁴ PKH labelled reference cells were mixed with 5×10⁴ target cells and incubated with periplasmic extracts for 30 min at 4′C, and washed 3 times. […] Samples were washed, resuspended in FACS Buffer (D-PBS from Gibco, with 10% FBS from Sigma and 0.05% sodium azide from Merck) and then analysed via a BD FACSArray. […] In this gate, 20,000 cells were counted during acquisition. Based on PKH26-SSC distribution, the PKH labelled parental population and the human TCR/CD3 unlabelled target population was selected. For these 2 populations the mean APC value was calculated.
Binding of purified monovalent anti-TCR Nanobodies to human TCR(2XN9)/CD3 expressed on CHO-K1 cells and to purified primary human T cells was evaluated in flow cytometry as outlined in Example 4.1.

[12] = biological target: T7, human CD3 expressed on HEK293H cells; experiment: flow cytometry, HEK293H human CD3 cells
Method: as §3
Nanobodies clearly bound to human TCR(2IAN)/CD3 expressed on HEK293H but not to the HEK293H cells transfected with human CD3 only, nor to the HEK293H parental cell line. The EC50 values obtained from the dose response curve are depicted in Table C-2.

[13] = biological target: T4, soluble recombinant cynomolgus TCR …; experiment: BLI (Octet RED384), immobilized cynomolgus TCR-zipper
[14] = biological target: T4, soluble recombinant cynomolgus TCR …; experiment: as above
Method: Binding affinities were measured using Bio-Layer Interferometry (BLI) on an Octet RED384 instrument (Pall ForteBio Corp.). Recombinant human soluble TCR(2XN9)-zipper protein was covalently immobilized on amine-reactive sensors (ForteBio) via NHS/EDC coupling chemistry. For kinetic analysis, sensors were first dipped into running buffer (10 mM Hepes, 150 mM NaCl, 0.05% p20, pH7.4 from GE Healthcare Life Sciences) to determine baseline setting. […] Affinity constants (KD) were calculated applying a 1:1 interaction model using the ForteBio Data Analysis software.
Binding affinities of the monovalent anti-TCR Nanobodies were measured using Bio-Layer Interferometry (BLI) on an Octet RED384 instrument (Pall ForteBio Corp.) essentially as described in Example 7.1 using cynomolgus TCR α/β zipper.

[15] = biological target: T4, soluble recombinant cynomolgus TCR …; experiment: ELISA, coated soluble cynomolgus TCR-zipper
Method: Quality of the TCR α/β zipper proteins was assessed in an ELISA binding assay. Maxisorp 96-well ELISA plates (Nunc) were coated with 2 μg/mL soluble recombinant human TCR α/β (2XN9)-zipper protein or soluble recombinant cynomolgus TCR α/β-zipper protein. After an overnight incubation, plates were washed and blocked with PBS+1% casein for 1 h at room temperature. Next, plates were incubated with serial dilutions of either a functional flag tagged Nanobody or the functional mouse IgG anti-non-human primate/Rat TCRα/β antibody, clone R73 (eBioscience 16-5960) for 1 h at room temperature while shaking, washed again and incubated with mouse anti-flag-HRP (Sigma, #A8592) respectively rabbit anti-mouse-HRP (Dako, # P0260). After 1 h, TMB One Solution (Promega #G7431) was added. The reaction was stopped with 2M H₂SO₄ and the dose dependent binding was determined by measuring the OD at 450 nm using the Tecan sunrise 4 (FIG. 2).
Binding of purified monovalent anti-TCR Nanobodies to soluble recombinant cynomolgus TCR c/3 protein was evaluated in ELISA (as described in Example 1.2) using 2 μg/ml directly coated recombinant soluble cynomolgus TCR-α/β zipper protein.

| Binder | binding result [4] | binding result [9] | binding result [10] | EC50 [11] [nM] | MCF at 1 µM [12] [MCF] | fold lower affinity than for soluble recombinant human TCR α/β zipper [13] [fold] | Kd [14] [nM] | koff [14] [s⁻¹] | kon [14] [M⁻¹ s⁻¹] | EC50 [15] [nM] | also measured |
| --- | --- | --- | --- | --- | --- | --- | --- | --- | --- | --- | --- |
| B1 | no binding (tested: 5e-7 M) |  |  |  |  |  |  |  |  |  | EC50 [1]: 0.93 nM; Top [1]: 32200; EC50 [2]: 0.54 nM; Top [2]: 52300; Kd [3]: 0.763 nM; koff [3]: 0.000426 s⁻¹; kon [3]: 558000 M⁻¹ s⁻¹; EC50 [5]: 1.8 nM; Top [5]: 166000 |
| B2 | no binding (tested: 5e-7 M) | no binding (tested: 5e-7 M) |  |  |  |  |  |  |  |  | EC50 [6]: 0.59 nM; Top [6]: 43000; EC50 [7]: 1.2 nM; Top [7]: 11200; Kd [8]: 0.51 nM; koff [8]: 0.00051 s⁻¹; kon [8]: 990000 M⁻¹ s⁻¹ |
| B3 |  |  | no binding (tested: 1e-6 M) | 91 | 1190 | 10 | 210 | 0.024 | 110000 | 160 |  |
| B4 |  | no binding (tested: 5e-7 M) | no binding (tested: 1e-6 M) | 91 | 352 | 10 | 150 | 0.016 | 110000 | 77 |  |
